Results reported in paper PMC6693562 (Cell Reports, 2019).

Biological target: the molecule itself
Assay: SEC-RALS

B1: MBP-OD^WT (human 53BP1 oligomerization domain, residues 1233-1288, fused to N-terminal maltose-binding protein) (domain or fragment, UniProt Q12888 1233-1288, looked up)
chain: GHVLHRHMRTIREVRTLVTRVITDVYYVDGTEVERKVTEETEEPIVECQECETEVS
  stoichiometry N: 4

B2: MBP-OD with mutation of D1256 (D1256A) (domain or fragment, human, UniProt Q12888 1233-1288, looked up)
chain: GHVLHRHMRTIREVRTLVTRVITAVYYVDGTEVERKVTEETEEPIVECQECETEVS
  stoichiometry N: 2
